Results as given in patent CN112300278A (UNIV SHANGHAI JIAOTONG, dated 2021).

Molecular target: T1, 人EGFR (human epidermal growth factor receptor) (human, UniProt P00533 25-1210)
T1 construct: whole, on cells; The target is on tumour cell lines that naturally express EGFR; No recombinant EGFR was used; also called 表皮生长因子受体; EGFR分子
Test: flow cytometry on MAD-MB-231 cells highly expressing EGFR; 293F supernatant (~20ug antibody), FITC donkey anti-human IgG

binding result: binds
B1: CET06 (antibody, V domains shown)
VH: QVQLTQSGPGLVKPSETLSQTCTVSGFSLTNYGVHWVRQSPGKGLEWLGVIWSGGNTDYNTPFTSRLTISVDTSKNQVSLKLSSVTSNDTAVYYCARALTYYDYEFAYWGQGTLVTVSA
VL: DISLTQSPVFLSVTPGEKVESECRASQSIGTNIHWYQQKPDQSPKLLIKYASESISGVPSRFSGSGSGTDFTLTINSVESEDIADYYCQQNNNWPTTFGAGTKLELKR
notes: the summary and claim 2 give the reverse; also called 抗人EGFR嵌合抗体CET06
